The text below walks through data of publication PMC3925751.

This assay deals with the model collagen surfaces. Description: SPR. (In general: In SPR one partner is held on a chip, and binding of the other changes the refractive index at the surface.)

Consider “lubricin (PRG4), purified from human synovial fluid (natural protein)”, for which the adsorbed amount fell in the range of 1 to 2 mg/m^2.
